For orientation: Kd means the constant that tells how readily two partners part at equilibrium. Higher therefore signals a looser complex.

The source of these data is patent CN115960240A (CHINESE ACADEMY OF MEDICAL SCIENCES HEMATOLOGIC DISEASE …, dated 2023).

In experiment [1] the target is T1, 人BCMA (B细胞成熟抗原) (human, UniProt Q02223 1-184).
T1 construct: whole, on cells; Endogenous BCMA on H929 cells; also called B-cell maturation antigen; H929细胞表面BCMA蛋白
T1 sequence (looked up): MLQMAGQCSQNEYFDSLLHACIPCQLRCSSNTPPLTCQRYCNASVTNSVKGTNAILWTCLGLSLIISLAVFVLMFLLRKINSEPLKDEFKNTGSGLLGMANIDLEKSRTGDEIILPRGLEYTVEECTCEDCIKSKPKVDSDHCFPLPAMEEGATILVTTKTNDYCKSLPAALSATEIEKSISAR
Kind of experiment: FACS titration (400 nM to 0.025 nM) on H929 cells, mean fluorescence, fitted in GraphPad Prism 7.

For experiment [2], the target named is T2, 人CD3 (human, UniProt P07766 23-207).
T2 construct: whole, on cells; also called Jurkat细胞表面CD3蛋白
T2 sequence (P07766 23-207): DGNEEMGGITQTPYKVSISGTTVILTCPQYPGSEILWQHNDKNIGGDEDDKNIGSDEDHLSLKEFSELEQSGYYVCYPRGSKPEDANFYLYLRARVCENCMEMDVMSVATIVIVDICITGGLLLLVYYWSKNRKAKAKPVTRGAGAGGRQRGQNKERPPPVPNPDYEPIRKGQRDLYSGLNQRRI
The experiment can be described thus: FACS titration (400 nM to 0.025 nM) on Jurkat cells, mean fluorescence, fitted in GraphPad Prism 7.

B1: 四价双特异性抗体Tandab(CD3/BCMA) (bispecific antibody)
chain: DADIELTQSPAIMSASPGEKVTMTCSASSSVSYMNWYQQKSGTSPKRWIYDTSKLASGVPARFSGSGSGTSYSLTISGMEAEDAATYYCQQWSSNPFTFGCGTKLELKRGGGGSQVQLQQSGAEVVRPGTSVKVSCKASGYAFTNYLIEWVKQRPGQGPEWIGVITPGRGDTKYNAKFAGKATLTADKSSSTAYMQLSSLTFDDSAVYFCARGTTAWFPYWGQGTLVTVSAGGGGSGGGGSGGGGSDIVLTQSPASLTVSLGQRATISCRASKSVSTSGYSYMHWYQQKPRQPPKLLIYLASNLESGVPARFSGSGSGTDFTLNIHPVEEEDAATYYCQHSRDLPYTFGGGTKLEIKRAGGGGSQVQLQQSGAELARPGASVKMSCKASGYTFTRYTMHWVKQRPGQCLEWIGYINPSRGYTNYNQKFKDKATLTTDKSSSTAYMELTRLTSEDSAVYYCARYYDDHYSLDYWGQGTTVTVSSHHHHHH
notes: Tetravalent tandem diabody made from anti-BCMA mAb 69G8 and anti-CD3 mAb HIT3a, expressed in ExpiCHO-S cells and purified on a nickel column; detected with an anti-His secondary antibody, so it carries a His tag
As to B1, the equilibrium dissociation constant (Kd) in experiment [1] and in experiment [2] was 1.96 nM each time.
